Measurements reported in patent US20060257938A1, “Method of screening for drugs that block ligand binding to a lipid binding protein” (priority 2005, published 2006).
Changes are numbered by the printed parent chain. Several values for one entry are separate records, joined by “and”; a condition that tells them apart may be missing. Equal entries are not always repeated.

B1: 73P, 72A (protein, listed as Rattus norvegicus)
chain: AFDGTWKVDRNENYEKFMEKMGINVVKRKLGAHDNLKLTITQEGNKFTVKESSNFRNIDVVFELGVDFAYSAPDGTELTGTWTMEGNKLVGKFKRVDNGKELIAVREISGNELIQTYTYEGVEAKRIFKKE
modifications: PEPTIDE (1)...(131) wild-type rat intestinal fatty acid binding protein
B2: 74C, 72A (protein, listed as Rattus norvegicus)
chain: B1 chain with P73A, D74C
modifications: PEPTIDE (1)...(131) wild-type rat intestinal fatty acid binding protein
B3: 73S, 72A (protein, listed as Rattus norvegicus)
chain: B1 chain with P73S
modifications: PEPTIDE (1)...(131) wild-type rat intestinal fatty acid binding protein
B4: 74A, 72A (protein, listed as Rattus norvegicus)
chain: B1 chain with P73A, D74A
modifications: PEPTIDE (1)...(131) wild-type rat intestinal fatty acid binding protein
B5: 73W, 72A (protein, listed as Rattus norvegicus)
chain: B1 chain with P73W
modifications: PEPTIDE (1)...(131) wild-type rat intestinal fatty acid binding protein
B6: 73R, 72A (protein, listed as Rattus norvegicus)
chain: B1 chain with P73R
modifications: PEPTIDE (1)...(131) wild-type rat intestinal fatty acid binding protein
B7: 73Q, 72A (protein, listed as Rattus norvegicus)
chain: B1 chain with P73Q
modifications: PEPTIDE (1)...(131) wild-type rat intestinal fatty acid binding protein
B8: 73T, 72A (protein, listed as Rattus norvegicus)
chain: B1 chain with P73T
modifications: PEPTIDE (1)...(131) wild-type rat intestinal fatty acid binding protein
B9: 73V, 72A (protein, listed as Rattus norvegicus)
chain: B1 chain with P73V
modifications: PEPTIDE (1)...(131) wild-type rat intestinal fatty acid binding protein

Assay: Probe fluorescence ratio response to linoleic acid relative to ADIFAB2
Format: binding
Settings: response relative to ADIFAB2
Method in brief: (§1)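 Each fatty acid's response was expressed relative to ADIFAB2, the rI-FABP-L72A probe, as ΔR/ΔRreference. ΔR is the change in the background-corrected two-wavelength intensity ratio R=Fλ1/Fλ2 from its analyte-free baseline R0. Emission was read near about 420-480 nm for unbound and about 495-580 nm for FFA-bound probe.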

Row | Molecule | DR/DR LA
1 | B1 | 0.30
2 | B2 | 0.71
3 | B3 | 1.05
4 | B4 | 1.34
5 | B5 | 1.89
6 | B6 | 0.36
7 | B7 | 1.39
8 | B8 | 0.77 and 0.768
9 | B9 | 0.40 and 0.396

Assay: Probe fluorescence ratio response to arachidonic acid relative to ADIFAB2
Format: binding
Settings: Arachidonic acid; response relative to ADIFAB2
Method in brief: as §1

Row | Molecule | DR/DR AA
10 | B1 | 0.42
11 | B2 | 0.83
12 | B3 | 1.01
13 | B4 | 1.42
14 | B5 | 1.77
15 | B6 | 0.40
16 | B7 | 1.36
17 | B8 | 0.87
18 | B9 | 0.98

Same assay, conditions: arachidonic acid; response relative to ADIFAB2

Row | Molecule | DR/DR AA
19 | B8 | 0.872
20 | B9 | 0.976

Assay: Probe fluorescence ratio response to linolenic acid relative to ADIFAB2
Format: binding
Settings: response relative to ADIFAB2
Method in brief: as §1

Row | Molecule | DR/DR LNA
21 | B1 | 0.41
22 | B2 | 0.74
23 | B3 | 1.08
24 | B4 | 1.42
25 | B5 | 1.93
26 | B6 | 0.33
27 | B7 | 1.31
28 | B8 | 0.77 and 0.765
29 | B9 | 0.50 and 0.496

Assay: Probe fluorescence ratio response to oleic acid relative to ADIFAB2
Format: binding
Settings: response relative to ADIFAB2
Method in brief: as §1

Row | Molecule | DR/DR OA
30 | B1 | 0.30
31 | B2 | 0.56
32 | B3 | 0.96
33 | B4 | 1.34
34 | B5 | 1.66
35 | B6 | 0.27
36 | B7 | 1.28
37 | B8 | 0.78 and 0.778
38 | B9 | 0.60 and 0.603

Assay: Probe fluorescence ratio response to palmitic acid relative to ADIFAB2
Format: binding
Settings: response relative to ADIFAB2
Method in brief: as §1

Row | Molecule | DR/DR PA
39 | B1 | 0.26
40 | B2 | 0.29
41 | B3 | 0.99
42 | B4 | 1.27
43 | B5 | 1.05
44 | B6 | 0.20
45 | B7 | 1.19
46 | B8 | 0.62 and 0.621
47 | B9 | 0.48 and 0.475
